Results taken from the supplement of paper PMC7877785.
± gives the uncertainty stated by the source.

Assay: self-splicing fitness, log relative to wild type (ln ratio); higher = more splicing; Tetrahymena group I intron in knt gene, E. coli kanamycin selection, DiMSum; sequences stand for … in CUCUCU…GGAGGGAAAAGUUAUCAGGCAUGCACCUGGUAGCUAGUCUUUAAACCAAUAGAUUGCAUCGGUUUAAAAGGCAAGACCGUCAAAUUGCGGGAAAGGGGUCAACAGCCGUUCAGUACCAAGUCUCAGGGGAAACUUUGAGAUGGCCUUGCAAAGGGUAUGGUAAUAAGCUGACGGACAUGGUCCUAACCACGCAGCCAAGUCCUAAGUCAACAGAUCUUCUGUUGAUAUGGAUGCAGUUCACAGACUAAAUGUCGGUCGGGGAAGAUGUAUUCUUCUCAUAAGAUAUAGUCGGACCUCUCCUUAAUGGGAGCUAGCGGAUGAAGUGAUGCAACACUGGAGCCGCUGGGAACUAAUUUGUAUGCGAAAGUAUAUUGAUUAGUUUUGGAGUACUCGUGGUCG
Procedure, shortened: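 A randomised library covering all eight P1ex-region intron nucleotides was built with the intron in the knt kanamycin-resistance gene on pET-22b(+) and held in E. coli BL21(DE3). Cells were grown overnight at 37°C or 30°C on LB agar, with or without 25 μg/mL kanamycin, plus 100 μg/mL carbenicillin, 50 μM IPTG and 0.2% rhamnose, and pooled colonies were amplicon-sequenced on an Illumina HiSeq 2500. DiMSum fitness is the error-weighted combination of wild-type-normalised replicate fold changes, kanamycin versus none.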

CUAUAGCAAUAUUACGAUCA
self-splicing fitness (ln) (30 °C): -3.08 ± 0.33
self-splicing fitness (ln) (37 °C): 0.388 ± 0.31

GACAAGCAAUAUUACGUCUC
self-splicing fitness (ln) (30 °C): -4.15 ± 0.27
self-splicing fitness (ln) (37 °C): -1.18 ± 0.19

ACAAAGCAAUAUUACGCCGA
self-splicing fitness (ln) (30 °C): -2.13 ± 0.15
self-splicing fitness (ln) (37 °C): -0.465 ± 0.13

AGAUAGCAAUAUUACGGAAC
self-splicing fitness (ln) (37 °C): -0.911 ± 0.3

GAAGAGCAAUAUUACGGGCC
self-splicing fitness (ln) (30 °C): -2.16 ± 0.29

UGUUAGCAAUAUUACGAUUA
self-splicing fitness (ln) (30 °C): -0.127 ± 0.093
self-splicing fitness (ln) (37 °C): 0.424 ± 0.11

GCUGAGCAAUAUUACGAGUC
self-splicing fitness (ln) (37 °C): -2.04 ± 0.25

UAUCAGCAAUAUUACGCGCA
self-splicing fitness (ln) (30 °C): -0.571 ± 0.091
self-splicing fitness (ln) (37 °C): 0.506 ± 0.11

UACUAGCAAUAUUACGCGAG
self-splicing fitness (ln) (30 °C): -1.86 ± 0.072
self-splicing fitness (ln) (37 °C): -1.59 ± 0.07

UGCAAGCAAUAUUACGGACU
self-splicing fitness (ln) (30 °C): -0.763 ± 0.077
self-splicing fitness (ln) (37 °C): 0.286 ± 0.093

CCUUAGCAAUAUUACGGUUC
self-splicing fitness (ln) (30 °C): -2.91 ± 0.18
self-splicing fitness (ln) (37 °C): -2.72 ± 0.39

UAGUAGCAAUAUUACGGAAA
self-splicing fitness (ln) (37 °C): -1.49 ± 0.3

ACAGAGCAAUAUUACGAAAU
self-splicing fitness (ln) (30 °C): -2.57 ± 0.45
self-splicing fitness (ln) (37 °C): -1.01 ± 0.29

UCGCAGCAAUAUUACGUCCC
self-splicing fitness (ln) (30 °C): -4.28 ± 0.32
self-splicing fitness (ln) (37 °C): -2.97 ± 0.3

AGAAAGCAAUAUUACGGACG
self-splicing fitness (ln) (30 °C): -0.883 ± 0.085
self-splicing fitness (ln) (37 °C): -0.116 ± 0.13

GUCUAGCAAUAUUACGGGUU
self-splicing fitness (ln) (30 °C): -1.92 ± 0.082
self-splicing fitness (ln) (37 °C): -0.234 ± 0.083

UGCUAGCAAUAUUACGUGAG
self-splicing fitness (ln) (30 °C): -3.51 ± 0.18
self-splicing fitness (ln) (37 °C): -1.78 ± 0.21

CGUUAGCAAUAUUACGCCAU
self-splicing fitness (ln) (37 °C): -1.61 ± 0.2

AGACAGCAAUAUUACGAGUA
self-splicing fitness (ln) (30 °C): -3.42 ± 0.21
self-splicing fitness (ln) (37 °C): -1.47 ± 0.15

UCGCAGCAAUAUUACGGAAU
self-splicing fitness (ln) (30 °C): -2.75 ± 0.27
self-splicing fitness (ln) (37 °C): -2.5 ± 0.26

GGCCAGCAAUAUUACGGGCG
self-splicing fitness (ln) (30 °C): -2.13 ± 0.2
self-splicing fitness (ln) (37 °C): -2.02 ± 0.26

AGAAAGCAAUAUUACGUAUU
self-splicing fitness (ln) (30 °C): -2.59 ± 0.13
self-splicing fitness (ln) (37 °C): -1.27 ± 0.14

GGGGAGCAAUAUUACGAUUU
self-splicing fitness (ln) (30 °C): -2.01 ± 0.16
self-splicing fitness (ln) (37 °C): -0.868 ± 0.16

CGGGAGCAAUAUUACGGAAA
self-splicing fitness (ln) (30 °C): -3.53 ± 0.29

CGGAAGCAAUAUUACGCACG
self-splicing fitness (ln) (37 °C): 0.981 ± 0.23

GACGAGCAAUAUUACGACGA
self-splicing fitness (ln) (30 °C): -0.98 ± 0.11
self-splicing fitness (ln) (37 °C): -1.07 ± 0.12

UGUUAGCAAUAUUACGUGUC
self-splicing fitness (ln) (30 °C): -3.15 ± 0.33
self-splicing fitness (ln) (37 °C): -1.48 ± 0.28

GAAAAGCAAUAUUACGUCGU
self-splicing fitness (ln) (30 °C): -0.785 ± 0.086
self-splicing fitness (ln) (37 °C): -1.29 ± 0.12

ACCAAGCAAUAUUACGCUUC
self-splicing fitness (ln) (30 °C): -3.27 ± 0.15
self-splicing fitness (ln) (37 °C): -1.71 ± 0.12

AUUUAGCAAUAUUACGUUUA
self-splicing fitness (ln) (30 °C): -1.97 ± 0.19
self-splicing fitness (ln) (37 °C): -1.07 ± 0.21

CCUCAGCAAUAUUACGAAGC
self-splicing fitness (ln) (30 °C): -2.92 ± 0.15
self-splicing fitness (ln) (37 °C): -2.44 ± 0.25

GAGCAGCAAUAUUACGCGAU
self-splicing fitness (ln) (30 °C): -4.28 ± 0.33
self-splicing fitness (ln) (37 °C): -0.0586 ± 0.21

GGUUAGCAAUAUUACGUAUC
self-splicing fitness (ln) (30 °C): -0.749 ± 0.12
self-splicing fitness (ln) (37 °C): 0.0936 ± 0.15

GGGUAGCAAUAUUACGGCGC
self-splicing fitness (ln) (30 °C): -0.217 ± 0.12
self-splicing fitness (ln) (37 °C): -1.14 ± 0.12

CGUAAGCAAUAUUACGCAUC
self-splicing fitness (ln) (37 °C): -2.03 ± 0.26

CGGCAGCAAUAUUACGAUAC
self-splicing fitness (ln) (30 °C): -3.21 ± 0.26
self-splicing fitness (ln) (37 °C): -2.89 ± 0.31

UUGAAGCAAUAUUACGUGGC
self-splicing fitness (ln) (30 °C): -3.36 ± 0.2
self-splicing fitness (ln) (37 °C): -1.66 ± 0.22

UGUAAGCAAUAUUACGAAGC
self-splicing fitness (ln) (30 °C): -3.44 ± 0.28
self-splicing fitness (ln) (37 °C): -2.61 ± 0.34

UAACAGCAAUAUUACGUUAG
self-splicing fitness (ln) (30 °C): -2.24 ± 0.087
self-splicing fitness (ln) (37 °C): -0.961 ± 0.086

ACACAGCAAUAUUACGCAGC
self-splicing fitness (ln) (30 °C): -3.73 ± 0.19
self-splicing fitness (ln) (37 °C): -2.47 ± 0.17

GGGAAGCAAUAUUACGGGCU
self-splicing fitness (ln) (30 °C): -0.942 ± 0.12
self-splicing fitness (ln) (37 °C): -0.846 ± 0.12
